± gives the standard deviation of the averaged measurements.
System: ATP
Assay: switch fluorescence ratio, 500 uM ATP over buffer (Cy3 cluster intensity, sum of 5 cycles each) (fold (ratio)); higher = stronger signal-on switching upon ATP binding; sequences stand for … in TCGTCGGCAGCGTCAGATGTGTATAAGAGACAGTTTTTTTTTTTTTTTTTTTTTTTTT…TC
Conditions: aptamer strand: ATP DNA aptamer (quencher-CACCTGGGGGAGTATTGCGGAGGAAGG + anchor), 100 nM annealed; ATP concentration: 500 uM
Procedure, shortened: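 Five buffer/ATP imaging cycles were run on Cy3-labelled switching-strand clusters on a modified Illumina MiSeq flow-cell, with NaOH stripping and re-annealing between cycles. In each cycle, clusters annealed to 100 nM quencher-labelled ATP aptamer were imaged in selection buffer, then after 15 min with 500 uM ATP at 22 °C. Per cluster, the fluorescence ratio is summed target-cycle over summed buffer-cycle Cy3 intensity, averaged per switch-domain sequence. Only clusters within 100-1000 RFU were kept.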
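Note: ATP exposure 15 min at 22 °C before imaging.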

For TGGTTTGGCA, the switch fluorescence ratio was 0.962 ± 0.012.
For TGGTTTGGGG, the switch fluorescence ratio was 0.974 ± 0.021.
With TGGTTTTATA the switch fluorescence ratio was 0.969 ± 0.02.
For TGGTTTTCGC, the switch fluorescence ratio was 0.975 ± 0.023.
TGTAAAAAGT gave a switch fluorescence ratio of 1 ± 0.026.
TGTAAAATTT was tested, and the switch fluorescence ratio was 0.988 ± 0.053.
With TGTAACGGGA the switch fluorescence ratio was 1.01 ± 0.018.
Work on TGTAAGGAAA yielded a switch fluorescence ratio of 1.03 ± 0.013.
Work on TGTAATTGCT yielded a switch fluorescence ratio of 0.999 ± 0.022.
Work on TGTAATTGGT yielded a switch fluorescence ratio of 1.003 ± 0.0089.
With TGTACTTTTT the switch fluorescence ratio was 1.02 ± 0.022.
For TGTAGGAGAC, the switch fluorescence ratio was 1.24 ± 0.33.
TGTAGGGATT gave a switch fluorescence ratio of 1.01 ± 0.054.
For TGTAGTATGT, the switch fluorescence ratio was 1 ± 0.012.
Work on TGTAGTATTT yielded a switch fluorescence ratio of 1 ± 0.013.
TGTAGTCTTT was tested, and the switch fluorescence ratio was 1.03 ± 0.052.
For TGTAGTTGGA, the switch fluorescence ratio was 0.973 ± 0.032.
For TGTATAAAAA, the switch fluorescence ratio was 0.9906 ± 0.0039.
Work on TGTATAAAGG yielded a switch fluorescence ratio of 1.009 ± 0.0069.
TGTATAAAGT gave a switch fluorescence ratio of 0.986 ± 0.02.
TGTATAATTG showed a switch fluorescence ratio of 0.993 ± 0.017.
TGTATGGCTA was tested, and the switch fluorescence ratio was 1.0085 ± 0.00081.
Sequence TGTATGGGAG has a switch fluorescence ratio of 0.968 ± 0.02.
Work on TGTATGGTAG yielded a switch fluorescence ratio of 0.975 ± 0.025.
TGTATGTTAG was tested, and the switch fluorescence ratio was 0.9477 ± 0.0061.
For TGTATTTCGT, the switch fluorescence ratio was 1.01 ± 0.011.
In the case of TGTATTTTTG, the switch fluorescence ratio is reported as 1.02 ± 0.029.
With TGTCAGAGGG the switch fluorescence ratio was 1.01 ± 0.016.
TGTCAGGAAA gave a switch fluorescence ratio of 0.9717 ± 0.0065.
In the case of TGTCAGGGGG, the switch fluorescence ratio is reported as 1.01 ± 0.023.
For TGTCAGTGGG, the switch fluorescence ratio was 0.975 ± 0.034.
For TGTCAGTTAT, the switch fluorescence ratio was 0.979 ± 0.031.
TGTCATTCGC gave a switch fluorescence ratio of 1.047 ± 0.0074.
With TGTCATTGGA the switch fluorescence ratio was 0.989 ± 0.017.
With TGTCCACTAC the switch fluorescence ratio was 2.78 ± 2.3.
With TGTCCGAGCA the switch fluorescence ratio was 1.75 ± 0.058.
For TGTCCTAGCG, the switch fluorescence ratio was 0.99 ± 0.024.
Sequence TGTCGCATTT has a switch fluorescence ratio of 1.04 ± 0.012.
TGTCGGAGGG gave a switch fluorescence ratio of 0.973 ± 0.065.
In the case of TGTCGGCTGG, the switch fluorescence ratio is reported as 1.02 ± 0.052.
In the case of TGTCGGGGTT, the switch fluorescence ratio is reported as 0.9932 ± 0.0083.
TGTCGGTGTT gave a switch fluorescence ratio of 0.971 ± 0.029.
In the case of TGTCGGTTTT, the switch fluorescence ratio is reported as 0.996 ± 0.037.
For TGTCGTAGGA, the switch fluorescence ratio was 1.006 ± 0.0035.
TGTCGTTTTC gave a switch fluorescence ratio of 0.98 ± 0.03.
TGTCTTAGGA was tested, and the switch fluorescence ratio was 0.999 ± 0.019.
TGTGAAAGAC was tested, and the switch fluorescence ratio was 1.044 ± 0.003.
TGTGAAGTGG was tested, and the switch fluorescence ratio was 1.02 ± 0.034.
TGTGAATTCG gave a switch fluorescence ratio of 1.01 ± 0.024.
TGTGACTAAG showed a switch fluorescence ratio of 0.9791 ± 0.0015.
TGTGAGGG gave a switch fluorescence ratio of 1.03 ± 0.036.
With TGTGAGGGGA the switch fluorescence ratio was 1.01 ± 0.035.
For TGTGAGGGTT, the switch fluorescence ratio was 0.964 ± 0.012.
Sequence TGTGAGGTTC has a switch fluorescence ratio of 0.9675 ± 0.0075.
TGTGAGTTGG gave a switch fluorescence ratio of 1 ± 0.029.
Sequence TGTGAGTTTA has a switch fluorescence ratio of 0.978 ± 0.028.
TGTGAGTTTG showed a switch fluorescence ratio of 1.03 ± 0.013.
TGTGATGGGC gave a switch fluorescence ratio of 0.989 ± 0.026.
In the case of TGTGCGCGCT, the switch fluorescence ratio is reported as 0.995 ± 0.036.
With TGTGCTGCTG the switch fluorescence ratio was 1.06 ± 0.02.
For TGTGGAAAAA, the switch fluorescence ratio was 1.011 ± 0.0081.
TGTGGACTGT showed a switch fluorescence ratio of 0.9855 ± 0.0015.
TGTGGAGCTT showed a switch fluorescence ratio of 1.07 ± 0.041.
Sequence TGTGGATAGG has a switch fluorescence ratio of 1.03 ± 0.012.
TGTGGATTAT was tested, and the switch fluorescence ratio was 0.988 ± 0.011.
Sequence TGTGGCACAC has a switch fluorescence ratio of 1.01 ± 0.018.
Work on TGTGGGAGCG yielded a switch fluorescence ratio of 0.9542 ± 0.0021.
With TGTGGGAGGG the switch fluorescence ratio was 0.998 ± 0.042.
Sequence TGTGGGGAAA has a switch fluorescence ratio of 0.993 ± 0.03.
For TGTGGGGGTT, the switch fluorescence ratio was 0.986 ± 0.048.
For TGTGGGTATT, the switch fluorescence ratio was 1.01 ± 0.028.
In the case of TGTGGGTCGT, the switch fluorescence ratio is reported as 1.01 ± 0.026.
In the case of TGTGGTACCA, the switch fluorescence ratio is reported as 1.01 ± 0.023.
For TGTGGTCGGT, the switch fluorescence ratio was 1.015 ± 0.007.
With TGTGGTGAA the switch fluorescence ratio was 1.01 ± 0.011.
TGTGGTTAGG was tested, and the switch fluorescence ratio was 0.993 ± 0.035.
TGTGGTTTGT was tested, and the switch fluorescence ratio was 1 ± 0.035.
TGTGGTTTTA was tested, and the switch fluorescence ratio was 1 ± 0.033.
With TGTGTAGGGG the switch fluorescence ratio was 1.04 ± 0.079.
TGTGTCCTAA gave a switch fluorescence ratio of 1.03 ± 0.026.
For TGTGTCCTGC, the switch fluorescence ratio was 0.965 ± 0.016.
TGTGTCGCGG gave a switch fluorescence ratio of 1 ± 0.033.
For TGTGTCGCGT, the switch fluorescence ratio was 0.983 ± 0.02.
Work on TGTGTCTACA yielded a switch fluorescence ratio of 1 ± 0.024.
Work on TGTGTGACAC yielded a switch fluorescence ratio of 0.998 ± 0.026.
Work on TGTGTGAGGT yielded a switch fluorescence ratio of 1.06 ± 0.027.
In the case of TGTGTGCGGT, the switch fluorescence ratio is reported as 0.997 ± 0.054.
With TGTGTGGGAC the switch fluorescence ratio was 0.988 ± 0.025.
With TGTGTGTGTT the switch fluorescence ratio was 1.02 ± 0.03.
Work on TGTGTGTTGA yielded a switch fluorescence ratio of 1.023 ± 0.0026.
Work on TGTGTGTTGG yielded a switch fluorescence ratio of 0.993 ± 0.024.
TGTGTTACGG gave a switch fluorescence ratio of 0.984 ± 0.023.
In the case of TGTGTTGGGT, the switch fluorescence ratio is reported as 0.98 ± 0.015.
In the case of TGTGTTTTTG, the switch fluorescence ratio is reported as 1.01 ± 0.015.
For TGTTAAATGG, the switch fluorescence ratio was 0.962 ± 0.014.
TGTTAATAAG was tested, and the switch fluorescence ratio was 0.9618 ± 0.0071.
For TGTTAATAGT, the switch fluorescence ratio was 0.981 ± 0.015.
TGTTAATCAC gave a switch fluorescence ratio of 1.02 ± 0.034.
In the case of TGTTAATTGG, the switch fluorescence ratio is reported as 1.02 ± 0.043.
In the case of TGTTACGGTG, the switch fluorescence ratio is reported as 1.002 ± 0.0031.

From the supplement of paper PMC10126150
